The source of these data is US20250296984A1, “THERAPEUTIC AND DIAGNOSTIC AGENTS AND USES THEREOF” (priority 2022, published 2025).

Substitutions are numbered along the chain they refer to. Values joined by “and” are separate entries in the source; they are usually repeats but may differ in a detail not shown here. Identical values can stand only once.

For test [1], the target named is Bio-Peptide-2 (human cytomegalovirus (4D variant)). Put plainly: ELISA (FIG. 5). A general note: ELISA stands for enzyme-linked immunosorbent assay.
For test [2] the target is unchanged. As to the kind of experiment: ELISA, Bio-Peptide-2 coated.
For test [3], the target named is Peptide 3 (human cytomegalovirus). As to the kind of experiment: HuProt array, 0.1 µg/ml.
Test [4] deals with Peptide-N-BSA (human cytomegalovirus). As to the kind of experiment: ELISA, Peptide-N-BSA coated.

B1: US28-13-5G6-1D3 (antibody)
heavy: EVKLVESGGGLVQPGGSLRLACATSGFTFTDYYMSWVRQPPGKALEWLGFIRSKANGYTTEYSASVKGRFTISRDNSQSILYLQMNTLRSEDSATYYCARDERRTAWLAYWGQGTLVTVSAAKTTPPSVYPLAPGSAAQTNSMVTLGCLVKGYFPEPVTVTWNSGSLSSGVHTFPAVLQSDLYTLSSSVTVPSSTWPSETVTCNVAHPASSTKVDKKIVPRDCGCKPCICTVPEVSSVFIFPPKPKDVLTITLTPKVTCVVVDISKDDPEVQFSWFVDDVEVHTAQTQPREEQFNSTFRSVSELPIMHQDWLNGKEFKCRVNSAAFPAPIEKTISKTKGRPKAPQVYTIPPPKEQMAKDKVSLTCMITDFFPEDITVEWQWNGQPAENYKNTQPIMDTDGSYFIYSKLNVQKSNWEAGNTFTCSVLHEGLHNHHTEKSLSHSPGK
light: DVLMTQTPLSLPVSLGDQASISCRSSQSIVHSNGNTYLDWYLQKPGQSPKLLIYKVSNRFSGVPDRFSGSGSGTDFTLKISRVEAEDLGVYYCFQGSHVPTWTFGGGTKLEIKRADAAPTVSIFPPSSEQLTSGGASVVCFLNNFYPKDINVKWKIDGSERQNGVLNSWTDQDSKDSTYSMSSTLTLTKDEYERHNSYTCEATHKTSTSPIVKSFNRNEC
Consider B1, for which the fold binding over BSA control in test [1] is 27 fold and 28 fold.

B2: US28-14-4E4-1E8 (antibody, mouse IgG1, kappa)
heavy: not shown
light: QIVLSQSPTIMSASPGEKVTMTCSASSSVSYMHWYQQKSGTSPKRWIYDSSKLASGVPARFSGSGSGTSYSLTISSMEAEDAATYYCQQWTSNPPITFGAGTKLELKRADAAPTVSIFPPSSEQLTSGGASVVCFLNNFYPKDINVKWKIDGSERQNGVLNSWTDQDSKDSTYSMSSTLTLTKDEYERHNSYTCEATHKTSTSPIVKSFNRNEC
As for B2, in test [2], the absorbance turned out to be 2.87.

B3: US28-13-1H3-1A10 (antibody, mouse IgG1, kappa)
heavy: EVKLVESGGVLVKPGGSLKFSCAASGFTLSSHALSWVRQTPEKRLEWVASISSRGRTYYPDSVKGRFTVSRDNARNILYLQVSSLRSEDTAMYYCTRGGTHYSYGNGFDFWGQGTTLTVSSAKTTPPSVYPLAPGSAAQTNSMVTLGCLVKGYFPEPVTVTWNSGSLSSGVHTFPAVLQSDLYTLSSSVTVPSSTWPSETVTCNVAHPASSTKVDKKIVPRDCGCKPCICTVPEVSSVFIFPPKPKDVLTITLTPKVTCVVVDISKDDPEVQFSWFVDDVEVHTAQTQPREEQFNSTFRSVSELPIMHQDWLNGKEFKCRVNSAAFPAPIEKTISKTKGRPKAPQVYTIPPPKEQMAKDKVSLTCMITDFFPEDITVEWQWNGQPAENYKNTQPIMDTDGSYFIYSKLNVQKSNWEAGNTFTCSVLHEGLHNHHTEKSLSHSPGK
light: B2 light with S5T, T9A, A25V, S50T, S76T, T91S, S92N
B3 returned an absorbance in test [2] of 2.84.

B4: US28-13-1C10-1C10 (antibody, mouse IgG1, kappa)
heavy: B3 heavy with L29F
light: B2 light with S5T, T9A, A25V, S50T, S76T, T91S, S92N
The molecule B4 registered an absorbance in test [2] of 3.03.

B5: US28-13-1C10-1G9 (antibody, mouse IgG1, kappa)
heavy: not shown
light: B2 light with S5T, T9A, S50T, T91S, I96L
In turn, B5 displayed an absorbance in test [2] of 3.06.

B6: US28-4-7B1F3 (antibody, mouse IgG1, kappa)
heavy: EVQLQQSGAELAKPGASVKMSCKASGYTFTNYWMHWVKQRPGQGLEWIGYVNPRTGYTEYNQKFKDKATLTADKSSRTAYMQLSSLTSEDSAVYSCARILNGTGFAYWGQGTLVTVSAAKTTPPSVYPLAPGSAAQTNSMVTLGCLVKGYFPEPVTVTWNSGSLSSGVHTFPAVLQSDLYTLSSSVTVPSSTWPSETVTCNVAHPASSTKVDKKIVPRDCGCKPCICTVPEVSSVFIFPPKPKDVLTITLTPKVTCVVVDISKDDPEVQFSWFVDDVEVHTAQTQPREEQFNSTFRSVSELPIMHQDWLNGKEFKCRVNSAAFPAPIEKTISKTKGRPKAPQVYTIPPPKEQMAKDKVSLTCMITDFFPEDITVEWQWNGQPAENYKNTQPIMDTDGSYFIYSKLNVQKSNWEAGNTFTCSVLHEGLHNHHTEKSLSHSPGK
light: DIVLTQSPSSLTVSVGEKFTMSCKSSQSLLYSSNQKNYLAWYQQKPGQSPKLLIYWASTRESGVPDRFTGSGSGTDFTLAISSVKPEDLAIYYCQQYYSFPLTFGAGTKLEIKRADAAPTVSIFPPSSEQLTSGGASVVCFLNNFYPKDINVKWKIDGSERQNGVLNSWTDQDSKDSTYSMSSTLTLTKDEYERHNSYTCEATHKTSTSPIVKSFNRNEC
In the case of B6, in test [3], the F635 is 50000 AU, the S Score came to 116 and the Z Score was found to be 145. The same molecule yielded an absorbance in test [4] of 2.8.
